Molecular target: T1, LshC2c2 (Cas13a) wild type (Leptotrichia shahii, UniProt P0DOC6 SEQ:1-1389)
T1 sequence: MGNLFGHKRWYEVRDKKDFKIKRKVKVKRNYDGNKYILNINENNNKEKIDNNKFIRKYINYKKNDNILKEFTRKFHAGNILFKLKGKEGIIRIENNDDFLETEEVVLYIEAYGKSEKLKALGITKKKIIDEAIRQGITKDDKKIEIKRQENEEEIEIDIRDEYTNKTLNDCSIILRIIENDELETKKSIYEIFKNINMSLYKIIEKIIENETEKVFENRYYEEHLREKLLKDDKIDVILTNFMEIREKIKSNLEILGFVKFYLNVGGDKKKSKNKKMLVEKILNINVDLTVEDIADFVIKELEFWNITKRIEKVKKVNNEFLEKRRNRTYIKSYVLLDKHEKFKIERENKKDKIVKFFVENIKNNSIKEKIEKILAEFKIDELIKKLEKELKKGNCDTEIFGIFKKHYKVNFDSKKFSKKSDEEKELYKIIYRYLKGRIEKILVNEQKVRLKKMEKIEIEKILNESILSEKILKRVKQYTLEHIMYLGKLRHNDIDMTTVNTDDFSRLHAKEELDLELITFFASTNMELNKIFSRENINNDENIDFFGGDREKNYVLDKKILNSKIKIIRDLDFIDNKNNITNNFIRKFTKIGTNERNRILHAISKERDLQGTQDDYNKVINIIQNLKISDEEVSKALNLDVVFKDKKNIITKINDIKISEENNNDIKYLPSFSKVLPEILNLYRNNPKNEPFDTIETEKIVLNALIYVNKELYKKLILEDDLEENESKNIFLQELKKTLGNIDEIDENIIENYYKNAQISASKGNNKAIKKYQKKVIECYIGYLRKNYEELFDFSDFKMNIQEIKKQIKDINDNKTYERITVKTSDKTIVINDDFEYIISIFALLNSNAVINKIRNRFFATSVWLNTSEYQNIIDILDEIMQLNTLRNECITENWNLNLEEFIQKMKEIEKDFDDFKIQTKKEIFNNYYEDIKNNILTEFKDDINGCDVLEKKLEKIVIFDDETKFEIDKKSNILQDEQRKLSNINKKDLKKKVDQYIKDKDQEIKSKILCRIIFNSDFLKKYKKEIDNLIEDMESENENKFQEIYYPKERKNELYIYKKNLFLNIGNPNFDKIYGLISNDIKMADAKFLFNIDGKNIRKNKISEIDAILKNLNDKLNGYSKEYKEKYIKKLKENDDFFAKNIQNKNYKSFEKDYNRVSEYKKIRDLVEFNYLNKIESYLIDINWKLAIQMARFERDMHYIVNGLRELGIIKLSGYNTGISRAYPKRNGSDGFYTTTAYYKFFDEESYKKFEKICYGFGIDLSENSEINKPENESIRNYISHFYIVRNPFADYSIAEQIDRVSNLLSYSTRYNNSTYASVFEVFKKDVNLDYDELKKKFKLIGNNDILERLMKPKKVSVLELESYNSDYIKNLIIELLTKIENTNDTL
Experiment: EMSA; non-target reverse complement
Conditions: tags: expressed as 6-His-MBP-TEV fusion, TEV-cleaved; direct repeat stem-loop
From the text: FIG. 119D Electrophoretic mobility shift assay (EMSA) evaluating affinity of the wild type LshC2c2-crRNA complex against a targeted (left) and a non-targeted (right) ssRNA substrate. The non-targeted ssRNA substrate is the reverse-complement of the targeted ssRNA. EDTA is supplemented to reaction condition to reduce any cleavage activity. FIG. 119E Electrophoretic mobility shift assay with LshC2c2(R1278A)-crRNA complex against on-target ssRNA and non-targeting complementary ssRNA (same substrate sequences as in D). FIG. 119B discloses SEQ ID NOS: 2090-2091, respectively, in order of appearance.
To determine if target binding and cleavage activity of LshC2c2 are likewise separable, electrophoretic mobility shift assays (EMSA) were performed on both the wild-type (FIG. 119D) and R1278A mutant LshC2c2 (FIG. 119E) in complex with crRNA.

B1: crRNA 14 ; ssRNA 10 (rc) (ssRNA ; ssRNA)
RNA 1: CCACCCCAAUAUCGAAGGGGACUAAAACUAGAUUGCUGUUCUACCAAGUAAUCCAU
RNA 2: CUUUAUGCUUCCGGCGUAGAUUGCUGUUCUACCAAGUAAUCCAUAUUCGAGCUCGAAUUCACUGGCCUAU
  binding result: no binding
